Source: patent US20200270365A1 (JIANGSU HENGRUI MEDICINE, published 2020)
Where two headings read alike, the source gives them in different places.

Key:
[1] = target: T1, PCSK9 D374Y mutant protein inserted with biotin receiving peptide BP15 and His-tag: PCSK9-D374Y-BP15-His6 (human, UniProt Q8NBP7 153-692; A8T644 31-152, biotin on the BP15 biotin receiving peptide); test: competition ELISA, LDLR-FC coated, biotin PCSK9-Y + antibody
T1 construct: also called PCSK9-Y; mutant PCSK9
Protocol: The blocking ability of PCSK9 antibodies according to the present invention for the binding of LDLR-FC and PCSK9-Y (mutant PCSK9, SEQ ID NO: 6) was tested by measuring the amount of PCSK9-Y binding to LDLR in the presence of the antibodies.
(§1) LDLR-FC (produced in-house, with sequence of SEQ ID NO: 8) was diluted to 2 μg/ml with phosphate buffer and was added into the 96-well ELISA plate, at 4° C. overnight. The plate was washed and then blocked with Tris buffer (including 0.9 mM CaCl₂, 0.05% Tween 20 and 5% skim milk) at 37° C. for 2 hours. Then the plate was washed and 100 μl/well of mixture of biotin-labeled mutant PCSK9 (diluted to 1 μg/ml with Tris buffer containing 0.9 mM CaCl₂, 0.05% Tween 20 and 1% skim milk) and antibody samples (diluted with Tris buffer containing 0.9 mM CaCl₂, 0.05% Tween 20 and 1% skim milk) was added and incubated at 37° C. for 1 hour. Then the plate was washed again and horseradish peroxidase-streptavidin (sigma, CAT #S2438) was added and incubated at 37° C. for 1 hour. Then the plate was washed and tetramethyl brenzidine solution was added for development. Finally, the stop buffer was added and OD450 value was measured on the Microplate reader, then IC50 value was calculated.

[2] = target: T1, PCSK9 D374Y mutant protein inserted …; test: ELISA, biotin PCSK9-Y on streptavidin plate
Protocol: The binding ability of anti-PCSK9 antibodies of the present invention to PCSK9-Y protein (mutant PCSK9, SEQ ID NO: 6) was detected by measuring the amounts of antibodies binding to PCSK9-Y immobilized on the ELISA plate.
Streptavidin (sigma, CAT #S4762) was diluted to 2 μg/ml with PBS and was added into a 96-well ELISA plate, at 4° C. for overnight. The plate was washed and then was blocked with Tris buffer (including 0.9 mM CaCl₂, 0.05% Tween 20 and 5% skim milk) at 37° C. for 2 hours. The plate was washed and 100 μl/well of biotin-labeled PCSK9-Y (produced in-house, diluted with Tris buffer containing 0.9 mM CaCl₂, 0.05% Tween 20 and 1% skim milk) was added and incubated at 37° C. for 1 hour. After the wash step, various concentrations of diluted PCSK9 antibody samples were added to the plate and incubated at 37° C. for 1 hour. […] Then the plate was washed and tetramethyl brenzidine solution was added for development. Finally, the stop buffer was added and the OD450 value was measured on the Microplate reader, and then EC50 was calculated.

[3] = target: T2, PCSK9 protein inserted with biotin receiving peptide BP15 and His-tag: PCSK9-BP15-His6 (human, UniProt Q8NBP7 153-692; A8T644 31-152, biotin on the BP15 biotin receiving peptide (labeled during the expression)); test: competition ELISA, LDLR-FC coated, biotin PCSK9 + antibody
T2 construct: also called WT PCSK9; PCSK9 WT
Protocol: The blocking ability of PCSK9 antibodies according to the present invention for the binding of LDLR-FC (produced in-house, with sequence of SEQ ID NO: 8) and PCSK9 (SEQ ID NO: 5) was tested by measuring the amount of PCSK9 binding to LDLR in the presence of the antibodies.
as §1, with “LDLR-FC” for “LDLR-FC (produced in-house, with sequence of SEQ ID NO: 8)”, “to 5” for “to 2”, “plate, kept” for “plate,”, “biotin-labeled” for “biotin-labeled mutant”, “to 2” for “to 1”

[4] = target: T1, PCSK9 D374Y mutant protein inserted …; test: competition ELISA, LDLR-FC coated, biotin PCSK9-Y + antibody; remark: listed apart in the source
Protocol: (§2) Different back mutations were selected for combination (Table 3) after CDR grafting. The designed humanized sequences were fully-gene synthesized and heavy and light chains were combined with each other for mammalian expression (Table 4). After purification of the protein, the blocking activity test was performed similarly to that for chimeric antibodies (see test 3 and 4 for the method and the results are shown in Table 5). Some cloned proteins were selected and were determined for dissociation constants by Surface Plasmon resonance (SPR) (Biacore X100, GE, see test 5). The sample to be tested was captured by the Amine-Coupling Anti-Fc pAb (GE) on the CM5 chip (GE). PCSK9 (SEQ ID NO: 1) or PCSK9-Y (SEQ ID NO: 4) was the mobile phase, working buffer was 1×HBS-EP⁺, pH 7.4, regeneration bu0ffer was 3 M MgCl₂.
(§3) LDLR-FC (produced in-house, with sequence of SEQ ID NO: 8) was diluted to 2 μg/ml with phosphate buffer and was added into the 96-well ELISA plate, at 4° C. overnight. The plate was washed and then blocked with Tris buffer (including 0.9 mM CaCl₂, 0.05% Tween 20 and 5% skim milk) at 37° C. for 2 hours. […] Finally, the stop buffer was added and OD450 value was measured on the Microplate reader, then IC50 value was calculated.

[5] = target: T3, PCSK9 with His-tag: PCSK9-His6 (human, UniProt Q8NBP7 153-692; A8T644 31-152); test: SPR Biacore X100, antibody captured by anti-Fc pAb on CM5, PCSK9 mobile phase
T3 construct: also called huPCSK9; human PCSK9 antigen
Protocol: as §2

[6] = target: T4, PCSK9-D374Y mutant protein with His-tag: PCSK9-D374Y-His6 (human, UniProt Q8NBP7 153-692; A8T644 31-152); test: SPR Biacore X100, antibody captured by anti-Fc pAb on CM5, PCSK9-Y mobile phase
T4 construct: also called PCSK9-Y; PCSK9-Y antigen
Protocol: as §2

[7] = target: T2, PCSK9 protein inserted with biotin …; test: competition ELISA, LDLR-FC coated, biotin PCSK9 + antibody; remark: listed apart in the source
Protocol: as §2
as §3, with “LDLR-FC” for “LDLR-FC (produced in-house, with sequence of SEQ ID NO: 8)”, “to 5” for “to 2”, “plate, kept” for “plate,”

[8] = target: T2, PCSK9 protein inserted with biotin …; test: ELISA, biotin PCSK9 on streptavidin plate
Protocol: The binding ability of anti-PCSK9 antibodies of the present invention to PCSK9 protein (WT PCSK9, SEQ ID NO: 5) was detected by measuring the amounts of antibodies binding to PCSK9 immobilized on the ELISA plate.
Streptavidin (sigma, CAT #S4762) was diluted to 2 μg/ml with PBS and was added into a 96-well ELISA plate, at 4° C. for overnight. The plate was washed and then was blocked with Tris buffer (including 0.9 mM CaCl₂, 0.05% Tween 20 and 5% skim milk) at 37° C. for 2 hours. Then the plate was washed again and 100 μl/well of biotin-labeled PCSK9 (produced in-house, diluted with Tris buffer containing 0.9 mM CaCl₂, 0.05% Tween 20 and 1% skim milk) was added and incubated at 37° C. for 1 hour. After the wash step various concentrations of diluted PCSK9 antibody samples was added to the plate and incubated at 37° C. for 1 hour. […] Then the plate was washed and tetramethyl brenzidine solution was added for development. Finally, the stop buffer was added and the OD450 value was measured on the Microplate reader, and then EC50 was calculated.

[9] = target: T3, PCSK9 with His-tag: PCSK9-His6; test: SPR Biacore, antibody captured by human Fab capture molecule on CM5, PCSK9-His6 mobile phase
Description: According to the method described in the human Fab capture kit (Cat. #28-9583-25, GE), the human Fab capture molecule was covalently linked to the CM5 biochip (Cat. #BR-1000-12, GE) so that the PCSK9 antibodies of the present invention were affinity captured. Then, human PCSK9 antigen (PCSK9 with His tag: PCSK9-His6, SEQ ID NO: 1) flowed through the surface of the biochip, and the reaction signal was detected in real time using a Biacore instrument to obtain the association and dissociation curves. Finally, the affinity values were obtained by fitting and are shown at table 16 below. After each cycle of dissociation was finished, the biochip was washed and regenerated with regeneration solution in the human Fab capture kit (GE).

IC50 [1] [µg/mL] | EC50 [2] [µg/mL] | IC50 [3] [µg/mL] | EC50 [8] [µg/mL] | Kd [9] [nM] | Binder | other results
5.49 | 1.78 | 0.681 | 0.00719 |  | humanized antibody h011-3 (antibody, V domains shown, h011_VH.1 with h011_VL.1B) VH: QVQLVQSGAEVKKPGASVKVSCKASGYTFTGYTIHWVRQAPGQGLEWMGYINPSSTYTKFNQKFKDRVTMTRDTSISTAYMELSRLRSDDTAVYYCARERIYSNYWFFDVWGQGTTVTVSS VL: DIVMTQSPSSLSASVGDRVTITCKASQNVYTAVAWYQQKPGKSPKLLIYSASNRYTGVPSRFSGSGSGTDFTLTISSLQPEDFATYFCQQYSSYPYTFGGGTKVEIK | IC50 [4]: 5.13 µg/mL; Kd [5]: 0.263 nM; koff [5]: 1.88e-05 s⁻¹; kon [5]: 71300 M⁻¹ s⁻¹; Kd [6]: 34.5 nM; koff [6]: 0.00578 s⁻¹; kon [6]: 168000 M⁻¹ s⁻¹; IC50 [7]: 0.205 µg/mL
0.689 | 0.0218 | 2.25 | 0.00679 |  | h011-3195 (antibody, V domains shown) VH: QVQLVQSGAEVKKPGASVKVSCKASGYTFTGYTIHWVRQAPGQGLEWMGYINPSSTYTKFNQKFKDRVTMTRDTSISTAYMELSRLRSDDTAVYYCARERIFSNYWFFDVWGQGTTVTVSS VL: DIVMTQSPSSLSASVGDRVTITCKASQNVYTAVAWYQQKPGKSPKLLIYSASNRYTGVPSRFSGSGSGTDFTLTISSLQPEDFATYFCQQYSSYPYTFGGGTKVEIK | 
 |  |  |  | < 0.0526 | h011-3133-WT: h011-3133-IgG1 format (antibody, Human IgG1 heavy chain constant region, human kappa light chain) heavy: not shown light: DIVMTQSPSSLSASVGDRVTITCKASQNVYTAVAWYQQKPGKSPKLLIYSASNRYTGVPSRFSGSGSGTDFTLTISSLQPEDFATYFCQQYSSYPYTFGGGTKVEIKRTVAAPSVFIFPPSDEQLKSGTASVVCLLNNFYPREAKVQWKVDNALQSGNSQESVTEQDSKDSTYSLSSTLTLSKADYEKHKVYACEVTHQGLSSPVTKSFNRGEC | 
 |  |  |  | < 0.0518 | h011-3133-YTE: h011-3133-IgG1-YTE format (antibody, Mutant human IgG1 (YTE: M252Y, S254T, T256E, EU numbering), human kappa light chain) heavy: QVQLVQSGAEVKKPGASVKVSCKASGYTFTGYEIHWVRQAPGQGLEWMGYINPSATYTKFNQKFKDRVTMTRDTSISTAYMELSRLRSDDTAVYYCARERIYSNYWFFDVWGQGTTVTVSSASTKGPSVFPLAPSSKSTSGGTAALGCLVKDYFPEPVTVSWNSGALTSGVHTFPAVLQSSGLYSLSSVVTVPSSSLGTQTYICNVNHKPSNTKVDKKVEPKSCDKTHTCPPCPAPELLGGPSVFLFPPKPKDTLYITREPEVTCVVVDVSHEDPEVKFNWYVDGVEVHNAKTKPREEQYNSTYRVVSVLTVLHQDWLNGKEYKCKVSNKALPAPIEKTISKAKGQPREPQVYTLPPSRDELTKNQVSLTCLVKGFYPSDIAVEWESNGQPENNYKTTPPVLDSDGSFFLYSKLTVDKSRWQQGNVFSCSVMHEALHNHYTQKSLSLSPGK light: DIVMTQSPSSLSASVGDRVTITCKASQNVYTAVAWYQQKPGKSPKLLIYSASNRYTGVPSRFSGSGSGTDFTLTISSLQPEDFATYFCQQYSSYPYTFGGGTKVEIKRTVAAPSVFIFPPSDEQLKSGTASVVCLLNNFYPREAKVQWKVDNALQSGNSQESVTEQDSKDSTYSLSSTLTLSKADYEKHKVYACEVTHQGLSSPVTKSFNRGEC | 
